Assay results: US10941182 (Amgen, dated 2021)
One block for each binder: values may come before it. Starred links: 1 amine or outer side, 2 acyl side, 3 side chain; linkers in the order of their positions; H or OH if unused. Non-standard residues stand in square brackets, D forms with d. Primed or numbered codes have the meaning given here. *: point of attachment. NPeg9 = PEG amine from Pra click product: 32-amino-3,6,9,12,15,18,21,24,27,30-decaoxadotriacontyl, NCCOCCOCCOCCOCCOCCOCCOCCOCCOCCOCC*; Pra′ = its azide, alkyne or alkene has reacted where a group follows in round brackets; Oic = O=C(O)[C@@H]1C[C@@H]2CCCC[C@@H]2N1; Phe(4-Cl) = N[C@@H](Cc1ccc(Cl)cc1)C(=O)O; γGlu = O=C(O)[C@H](CCC(=O)[*:2])N[*:1]; NMeR = CN[C@@H](CCCNC(=N)N)C(=O)O; Tridecanoyl = CCCCCCCCCCCCC(=O)*; hArg = N=C(N)NCCCC[C@H](N)C(=O)O; Cha = N[C@@H](CC1CCCCC1)C(=O)O; NMeL = CN[C@@H](CC(C)C)C(=O)O; pGlu = O=C1CC[C@@H](C(=O)O)N1; Nle = CCCC[C@H](N)C(=O)O; Orn = NCCC[C@H](N)C(=O)O; AEEA = NCCOCCOCC(=O)O; Aib = CC(C)(N)C(=O)O

Experiments:
Assay in all cases: cell-based or functional assay
human APJ receptor [1] = biological target: T1, human APJ receptor (human, UniProt P35414 1-380)
T1 sequence (looked up): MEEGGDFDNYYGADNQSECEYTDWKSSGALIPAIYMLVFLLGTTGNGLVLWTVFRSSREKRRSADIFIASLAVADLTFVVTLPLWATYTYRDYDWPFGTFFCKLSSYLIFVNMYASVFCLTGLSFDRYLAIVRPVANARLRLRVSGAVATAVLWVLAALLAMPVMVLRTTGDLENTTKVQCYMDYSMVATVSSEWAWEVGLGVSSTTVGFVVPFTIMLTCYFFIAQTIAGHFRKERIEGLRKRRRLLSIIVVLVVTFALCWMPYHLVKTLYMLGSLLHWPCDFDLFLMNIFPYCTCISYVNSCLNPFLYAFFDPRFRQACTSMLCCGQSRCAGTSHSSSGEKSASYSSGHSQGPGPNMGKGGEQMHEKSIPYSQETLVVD

rat APJ receptor [2] = biological target: T2, rat APJ receptor (rat, UniProt Q9JHG3 1-377)
T2 sequence (looked up): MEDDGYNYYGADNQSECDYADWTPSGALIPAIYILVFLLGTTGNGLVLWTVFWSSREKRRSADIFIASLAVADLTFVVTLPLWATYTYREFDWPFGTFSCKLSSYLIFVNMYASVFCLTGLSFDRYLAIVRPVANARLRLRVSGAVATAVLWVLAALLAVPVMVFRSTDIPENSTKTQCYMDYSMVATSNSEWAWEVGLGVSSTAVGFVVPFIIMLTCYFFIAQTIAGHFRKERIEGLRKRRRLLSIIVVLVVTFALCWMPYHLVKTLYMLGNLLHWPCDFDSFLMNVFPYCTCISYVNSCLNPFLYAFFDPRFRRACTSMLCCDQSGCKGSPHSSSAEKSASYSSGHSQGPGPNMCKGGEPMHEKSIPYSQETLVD

human APJ receptor [3] = biological target: T3, human APJ receptor (human, UniProt P35414 1-380); remark: listed apart in the source
T3 sequence (looked up): T1 sequence (looked up)

rat APJ receptor [4] = biological target: T4, rat APJ receptor (rat, UniProt Q9JHG3 1-377); remark: listed apart in the source
T4 sequence (looked up): T2 sequence (looked up)

Binder: [pGlu]RP[hArg][Cha][Pra′](NPeg9)HKG[Oic][Nle]P[Phe(4-Cl)]-OH [apelin polypeptide SEQ ID NO: 96]
EC50 Human APJ Receptor (human APJ receptor [1]): 2.02 nM
EC50 Rat APJ Receptor (rat APJ receptor [2]): 14.6 nM

B1: modified apelin polypeptide SEQ ID NO: 337 (peptide)
peptide: Tridecanoyl-[γGlu][AEEA][AEEA]RQRPK[Cha]SH[Nle]G[Oic][Nle]P[Phe(4-Cl)]-OH
SMILES: CCCCCCCCCCCCC(=O)N[C@@H](CCC(=O)NCCOCCOCC(=O)NCCOCCOCC(=O)N[C@@H](CCCNC(=N)N)C(=O)N[C@@H](CCC(N)=O)C(=O)N[C@@H](CCCNC(=N)N)C(=O)N1CCC[C@H]1C(=O)N[C@@H](CCCCN)C(=O)N[C@@H](CC1CCCCC1)C(=O)N[C@@H](CO)C(=O)N[C@@H](Cc1c[nH]cn1)C(=O)N[C@@H](CCCC)C(=O)NCC(=O)N1[C@H](C(=O)N[C@@H](CCCC)C(=O)N2CCC[C@H]2C(=O)N[C@@H](Cc2ccc(Cl)cc2)C(=O)O)C[C@@H]2CCCC[C@@H]21)C(=O)O
EC50 Human APJ Receptor (µM), GTPγS assay (human APJ receptor [3]): 0.00208 µM
EC50 Rat APJ Receptor (µM), GTPγS assay (rat APJ receptor [4]): 0.00212 µM

B3: apelin polypeptide SEQ ID NO: 58 (peptide)
peptide: Ac-[Orn]F[hArg][hArg]Q[hArg][Oic][dR][Cha]SHKG[Oic][Nle][Phe(4-Cl)]-OH
SMILES: CCCC[C@H](NC(=O)[C@@H]1C[C@@H]2CCCC[C@@H]2N1C(=O)CNC(=O)[C@H](CCCCN)NC(=O)[C@H](Cc1c[nH]cn1)NC(=O)[C@H](CO)NC(=O)[C@H](CC1CCCCC1)NC(=O)[C@@H](CCCNC(=N)N)NC(=O)[C@@H]1C[C@@H]2CCCC[C@@H]2N1C(=O)[C@H](CCCCNC(=N)N)NC(=O)[C@H](CCC(N)=O)NC(=O)[C@H](CCCCNC(=N)N)NC(=O)[C@H](CCCCNC(=N)N)NC(=O)[C@H](Cc1ccccc1)NC(=O)[C@H](CCCN)NC(C)=O)C(=O)N[C@@H](Cc1ccc(Cl)cc1)C(=O)O
EC50 Human APJ Receptor (human APJ receptor [1]): 1.17 nM
EC50 Rat APJ Receptor (rat APJ receptor [2]): 5.32 nM

B5: apelin polypeptide SEQ ID NO: 57 (peptide)
peptide: Ac-[Orn]F[hArg][hArg]Q[hArg]P[NMeR][Cha]SHKG[Oic][Nle][Phe(4-Cl)]-OH
SMILES: CCCC[C@H](NC(=O)[C@@H]1C[C@@H]2CCCC[C@@H]2N1C(=O)CNC(=O)[C@H](CCCCN)NC(=O)[C@H](Cc1c[nH]cn1)NC(=O)[C@H](CO)NC(=O)[C@H](CC1CCCCC1)NC(=O)[C@H](CCCNC(=N)N)N(C)C(=O)[C@@H]1CCCN1C(=O)[C@H](CCCCNC(=N)N)NC(=O)[C@H](CCC(N)=O)NC(=O)[C@H](CCCCNC(=N)N)NC(=O)[C@H](CCCCNC(=N)N)NC(=O)[C@H](Cc1ccccc1)NC(=O)[C@H](CCCN)NC(C)=O)C(=O)N[C@@H](Cc1ccc(Cl)cc1)C(=O)O
EC50 Human APJ Receptor (human APJ receptor [1]): 0.412 nM
EC50 Rat APJ Receptor (rat APJ receptor [2]): 0.787 nM

B6: apelin polypeptide SEQ ID NO: 59 (peptide)
peptide: Ac-[Orn]F[hArg][hArg]Q[hArg]P[dR][NMeL]SHKG[Oic][Nle][Phe(4-Cl)]-OH
SMILES: CCCC[C@H](NC(=O)[C@@H]1C[C@@H]2CCCC[C@@H]2N1C(=O)CNC(=O)[C@H](CCCCN)NC(=O)[C@H](Cc1c[nH]cn1)NC(=O)[C@H](CO)NC(=O)[C@H](CC(C)C)N(C)C(=O)[C@@H](CCCNC(=N)N)NC(=O)[C@@H]1CCCN1C(=O)[C@H](CCCCNC(=N)N)NC(=O)[C@H](CCC(N)=O)NC(=O)[C@H](CCCCNC(=N)N)NC(=O)[C@H](CCCCNC(=N)N)NC(=O)[C@H](Cc1ccccc1)NC(=O)[C@H](CCCN)NC(C)=O)C(=O)N[C@@H](Cc1ccc(Cl)cc1)C(=O)O
EC50 Human APJ Receptor (human APJ receptor [1]): 2.08 nM
EC50 Rat APJ Receptor (rat APJ receptor [2]): 4.57 nM

Now from value to binder:

EC50 Human APJ Receptor (µM), GTPγS assay (human APJ receptor [3]): 0.000561 µM
EC50 Rat APJ Receptor (µM), GTPγS assay (rat APJ receptor [4]): 0.00127 µM
B2: modified apelin polypeptide SEQ ID NO: 341 (peptide)
peptide: Tridecanoyl-[γGlu][AEEA][AEEA]RQRPK[Cha]SA[Nle]G[Oic][Nle]P[Phe(4-Cl)]-OH
SMILES: CCCCCCCCCCCCC(=O)N[C@@H](CCC(=O)NCCOCCOCC(=O)NCCOCCOCC(=O)N[C@@H](CCCNC(=N)N)C(=O)N[C@@H](CCC(N)=O)C(=O)N[C@@H](CCCNC(=N)N)C(=O)N1CCC[C@H]1C(=O)N[C@@H](CCCCN)C(=O)N[C@@H](CC1CCCCC1)C(=O)N[C@@H](CO)C(=O)N[C@@H](C)C(=O)N[C@@H](CCCC)C(=O)NCC(=O)N1[C@H](C(=O)N[C@@H](CCCC)C(=O)N2CCC[C@H]2C(=O)N[C@@H](Cc2ccc(Cl)cc2)C(=O)O)C[C@@H]2CCCC[C@@H]21)C(=O)O

EC50 Rat APJ Receptor (µM), GTPγS assay (rat APJ receptor [4]): 0.00299 µM
B4: modified apelin polypeptide SEQ ID NO: 532 (peptide)
peptide: Tridecanoyl-[γGlu][dQ]RP[NMeR][Cha]SHKG[Oic][Nle][Aib][Phe(4-Cl)]-OH
SMILES: CCCCCCCCCCCCC(=O)N[C@@H](CCC(=O)N[C@H](CCC(N)=O)C(=O)N[C@@H](CCCNC(=N)N)C(=O)N1CCC[C@H]1C(=O)N(C)[C@@H](CCCNC(=N)N)C(=O)N[C@@H](CC1CCCCC1)C(=O)N[C@@H](CO)C(=O)N[C@@H](Cc1c[nH]cn1)C(=O)N[C@@H](CCCCN)C(=O)NCC(=O)N1[C@H](C(=O)N[C@@H](CCCC)C(=O)NC(C)(C)C(=O)N[C@@H](Cc2ccc(Cl)cc2)C(=O)O)C[C@@H]2CCCC[C@@H]21)C(=O)O
